Laboratory results published in PMC4004530 (Circulation research, 2013).
Like-named read-outs stand apart in the source and are kept apart here.

Columns and labels:
[1] = molecular target: Cardiac ryanodine receptor (RyR2) in rat ventricular myocytes (rat (endogenous in ventricular myocytes)) (UniProt B0LPN4); test: FRET or BRET
[2] = molecular target: Cardiac ryanodine receptor (RyR2) in rat ventricular myocytes (rat (endogenous in ventricular myocytes)) (UniProt B0LPN4); test: FRET or BRET; remark: listed apart in the source
[3] = molecular target: Cardiac ryanodine receptor (RyR2) in rat ventricular myocytes (rat (endogenous in ventricular myocytes), UniProt B0LPN4 1-4955); test: other fluorescence titration
Chain of Cardiac ryanodine receptor (RyR2) in rat ventricular myocytes (B0LPN4 whole entry): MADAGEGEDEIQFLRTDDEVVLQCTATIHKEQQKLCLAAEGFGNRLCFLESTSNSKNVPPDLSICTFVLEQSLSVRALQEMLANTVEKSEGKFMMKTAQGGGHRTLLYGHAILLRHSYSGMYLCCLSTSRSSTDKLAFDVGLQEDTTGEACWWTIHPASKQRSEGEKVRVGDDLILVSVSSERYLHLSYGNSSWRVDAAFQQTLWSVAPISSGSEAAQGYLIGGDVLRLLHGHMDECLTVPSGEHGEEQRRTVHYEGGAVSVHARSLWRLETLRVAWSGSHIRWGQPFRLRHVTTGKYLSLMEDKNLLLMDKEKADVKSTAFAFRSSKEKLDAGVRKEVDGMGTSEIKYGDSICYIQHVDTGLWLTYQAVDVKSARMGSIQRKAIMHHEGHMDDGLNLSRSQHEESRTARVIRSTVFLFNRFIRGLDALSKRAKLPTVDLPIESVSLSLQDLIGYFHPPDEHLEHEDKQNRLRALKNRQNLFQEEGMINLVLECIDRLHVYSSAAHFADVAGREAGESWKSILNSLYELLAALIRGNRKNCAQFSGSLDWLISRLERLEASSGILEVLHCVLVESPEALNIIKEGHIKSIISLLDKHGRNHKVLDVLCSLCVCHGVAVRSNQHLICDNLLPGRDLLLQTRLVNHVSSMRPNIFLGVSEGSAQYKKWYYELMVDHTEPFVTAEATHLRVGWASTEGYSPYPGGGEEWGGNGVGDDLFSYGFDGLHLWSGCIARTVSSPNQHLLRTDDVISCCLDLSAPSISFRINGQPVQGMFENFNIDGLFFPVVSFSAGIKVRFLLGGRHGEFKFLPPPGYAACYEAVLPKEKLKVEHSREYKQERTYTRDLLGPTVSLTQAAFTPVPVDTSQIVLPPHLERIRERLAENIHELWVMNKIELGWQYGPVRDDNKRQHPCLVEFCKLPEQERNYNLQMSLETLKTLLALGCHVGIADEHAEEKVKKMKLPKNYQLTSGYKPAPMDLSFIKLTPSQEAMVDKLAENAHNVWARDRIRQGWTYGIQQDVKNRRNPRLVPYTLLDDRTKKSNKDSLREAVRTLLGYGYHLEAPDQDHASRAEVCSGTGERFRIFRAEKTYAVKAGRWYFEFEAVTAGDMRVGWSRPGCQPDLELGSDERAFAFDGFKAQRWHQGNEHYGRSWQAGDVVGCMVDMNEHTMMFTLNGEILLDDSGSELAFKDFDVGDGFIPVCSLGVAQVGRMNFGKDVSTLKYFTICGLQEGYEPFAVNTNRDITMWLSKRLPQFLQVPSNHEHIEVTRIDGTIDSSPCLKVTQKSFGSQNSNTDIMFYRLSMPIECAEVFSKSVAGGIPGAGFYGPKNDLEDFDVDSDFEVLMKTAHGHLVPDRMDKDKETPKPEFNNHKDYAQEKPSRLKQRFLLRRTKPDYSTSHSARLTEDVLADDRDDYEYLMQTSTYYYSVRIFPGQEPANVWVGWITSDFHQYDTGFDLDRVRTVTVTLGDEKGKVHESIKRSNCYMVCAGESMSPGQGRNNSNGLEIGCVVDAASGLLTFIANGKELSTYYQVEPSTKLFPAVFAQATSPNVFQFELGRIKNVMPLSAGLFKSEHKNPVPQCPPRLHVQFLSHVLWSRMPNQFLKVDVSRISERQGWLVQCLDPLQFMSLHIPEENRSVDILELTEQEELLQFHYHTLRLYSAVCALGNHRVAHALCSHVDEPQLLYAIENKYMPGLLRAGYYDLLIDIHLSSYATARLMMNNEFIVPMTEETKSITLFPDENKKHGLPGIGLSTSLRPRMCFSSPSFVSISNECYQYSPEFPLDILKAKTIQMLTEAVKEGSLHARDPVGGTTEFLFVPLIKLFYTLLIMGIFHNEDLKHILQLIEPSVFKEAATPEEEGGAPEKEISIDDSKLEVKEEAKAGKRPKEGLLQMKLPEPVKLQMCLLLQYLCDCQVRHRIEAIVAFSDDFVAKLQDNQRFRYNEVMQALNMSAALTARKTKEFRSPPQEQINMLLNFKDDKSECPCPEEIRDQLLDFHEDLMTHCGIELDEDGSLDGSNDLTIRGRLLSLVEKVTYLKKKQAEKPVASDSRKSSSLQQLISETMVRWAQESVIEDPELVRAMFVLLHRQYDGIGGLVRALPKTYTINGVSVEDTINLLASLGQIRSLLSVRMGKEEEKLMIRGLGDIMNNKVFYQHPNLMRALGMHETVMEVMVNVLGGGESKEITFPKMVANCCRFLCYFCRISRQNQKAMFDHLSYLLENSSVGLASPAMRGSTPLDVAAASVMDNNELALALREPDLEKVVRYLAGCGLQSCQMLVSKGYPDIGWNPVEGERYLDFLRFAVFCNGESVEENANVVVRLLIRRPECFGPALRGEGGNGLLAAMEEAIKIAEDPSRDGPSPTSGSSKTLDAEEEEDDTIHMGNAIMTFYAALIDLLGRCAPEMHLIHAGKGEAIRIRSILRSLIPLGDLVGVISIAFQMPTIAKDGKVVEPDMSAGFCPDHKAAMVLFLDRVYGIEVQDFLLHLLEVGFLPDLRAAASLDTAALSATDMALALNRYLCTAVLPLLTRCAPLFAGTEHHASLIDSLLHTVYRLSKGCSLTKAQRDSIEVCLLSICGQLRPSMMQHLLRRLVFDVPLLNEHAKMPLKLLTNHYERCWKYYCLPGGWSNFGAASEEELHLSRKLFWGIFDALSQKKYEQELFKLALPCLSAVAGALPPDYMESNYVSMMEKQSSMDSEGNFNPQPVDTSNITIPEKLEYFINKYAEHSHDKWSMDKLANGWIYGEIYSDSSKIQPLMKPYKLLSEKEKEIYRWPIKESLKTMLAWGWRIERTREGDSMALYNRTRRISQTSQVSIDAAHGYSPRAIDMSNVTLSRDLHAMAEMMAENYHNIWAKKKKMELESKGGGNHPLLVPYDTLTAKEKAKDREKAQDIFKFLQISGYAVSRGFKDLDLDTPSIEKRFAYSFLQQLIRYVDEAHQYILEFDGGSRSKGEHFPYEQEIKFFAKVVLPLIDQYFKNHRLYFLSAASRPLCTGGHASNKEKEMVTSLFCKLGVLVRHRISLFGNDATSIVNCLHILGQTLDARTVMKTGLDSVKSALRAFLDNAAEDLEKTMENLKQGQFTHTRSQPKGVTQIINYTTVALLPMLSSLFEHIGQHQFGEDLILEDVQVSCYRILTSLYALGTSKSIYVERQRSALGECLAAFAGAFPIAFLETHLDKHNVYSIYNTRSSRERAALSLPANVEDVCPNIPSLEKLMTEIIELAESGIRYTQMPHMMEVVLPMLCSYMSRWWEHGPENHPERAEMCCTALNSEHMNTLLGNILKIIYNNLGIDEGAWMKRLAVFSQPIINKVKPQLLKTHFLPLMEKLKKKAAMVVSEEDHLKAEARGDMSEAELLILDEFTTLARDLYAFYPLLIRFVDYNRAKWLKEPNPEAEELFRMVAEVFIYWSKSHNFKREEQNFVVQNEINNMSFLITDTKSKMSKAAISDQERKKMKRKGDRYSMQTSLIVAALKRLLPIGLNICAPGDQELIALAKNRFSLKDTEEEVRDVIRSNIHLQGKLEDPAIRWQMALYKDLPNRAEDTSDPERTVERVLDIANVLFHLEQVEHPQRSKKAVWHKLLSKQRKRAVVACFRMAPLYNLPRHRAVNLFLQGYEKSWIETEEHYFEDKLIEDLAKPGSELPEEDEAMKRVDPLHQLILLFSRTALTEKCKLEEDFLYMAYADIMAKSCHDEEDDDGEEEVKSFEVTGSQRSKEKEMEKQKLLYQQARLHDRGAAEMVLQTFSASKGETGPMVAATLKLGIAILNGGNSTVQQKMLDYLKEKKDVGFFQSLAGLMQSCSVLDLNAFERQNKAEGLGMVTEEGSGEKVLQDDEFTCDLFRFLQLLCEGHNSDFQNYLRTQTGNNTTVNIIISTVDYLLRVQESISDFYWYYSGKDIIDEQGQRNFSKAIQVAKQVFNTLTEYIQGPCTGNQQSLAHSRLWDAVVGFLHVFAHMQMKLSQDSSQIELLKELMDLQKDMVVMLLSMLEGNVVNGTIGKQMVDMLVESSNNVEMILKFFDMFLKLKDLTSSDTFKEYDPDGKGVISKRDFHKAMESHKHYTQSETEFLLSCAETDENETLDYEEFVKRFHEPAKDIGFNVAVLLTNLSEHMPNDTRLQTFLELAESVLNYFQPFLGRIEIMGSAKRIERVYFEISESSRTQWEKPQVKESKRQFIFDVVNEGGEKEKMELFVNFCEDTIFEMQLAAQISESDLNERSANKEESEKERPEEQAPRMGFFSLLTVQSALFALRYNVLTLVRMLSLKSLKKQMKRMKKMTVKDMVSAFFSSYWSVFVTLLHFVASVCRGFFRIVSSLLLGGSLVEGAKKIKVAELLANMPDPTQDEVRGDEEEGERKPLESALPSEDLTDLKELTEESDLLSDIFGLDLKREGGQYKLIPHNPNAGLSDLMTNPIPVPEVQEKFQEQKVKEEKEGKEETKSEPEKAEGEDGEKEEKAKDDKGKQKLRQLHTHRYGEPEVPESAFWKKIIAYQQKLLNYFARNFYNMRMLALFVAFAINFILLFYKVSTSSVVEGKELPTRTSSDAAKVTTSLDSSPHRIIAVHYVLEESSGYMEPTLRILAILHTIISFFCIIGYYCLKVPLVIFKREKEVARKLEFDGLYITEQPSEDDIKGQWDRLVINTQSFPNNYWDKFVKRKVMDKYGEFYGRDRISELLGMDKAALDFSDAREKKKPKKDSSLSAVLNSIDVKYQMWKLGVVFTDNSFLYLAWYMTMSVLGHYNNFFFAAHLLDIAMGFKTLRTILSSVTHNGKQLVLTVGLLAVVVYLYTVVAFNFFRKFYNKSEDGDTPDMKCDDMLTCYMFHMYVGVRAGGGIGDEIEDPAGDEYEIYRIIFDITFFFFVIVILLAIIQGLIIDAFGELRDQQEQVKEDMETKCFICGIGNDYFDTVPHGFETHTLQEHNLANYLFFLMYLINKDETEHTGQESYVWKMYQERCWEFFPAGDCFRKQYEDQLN

Chain of Cardiac ryanodine receptor (RyR2) in rat ventricular myocytes (rat (endogenous in ventricular myocytes)) (B0LPN4 whole entry): as above

| Kd [1] [nM] | Kd [2] [nM] | Kd [3] [nM] | Molecule |
| --- | --- | --- | --- |
| 12 | 10 |  | Fluorescent calmodulin (CaM labeled with Alexa Fluor 568) (from UniProt P0DP23 1-149) (natural protein) |
|  |  | 0.8 ± 0.1 | Fluorescent FKBP12.6 (FK506 binding protein 12.6 labeled with Alexa Fluor 488) (natural protein, Alexa Fluor 488 label (site not stated)) MGVEIETISPGDGRCFPKKGQTAVVHYTGMLQNGKKFDSSRDRNKPFKFRIGKQEVIKGFEEGAAQMSLGQRAKLTITPDVAYGATGHPGVIPPNATLIFDVELLNLE |
